Data reported in PMC5181381.

Experiments:
[1] = molecular target: truncated form of turkey β1-adrenergic receptor, β1AR^∆NC (turkey) (UniProt P07700)
[2] = molecular target: truncated form of turkey β1-adrenergic receptor, β1AR^∆NC (turkey) (UniProt P07700); assay: SEC; purified β1AR^∆NC in LMNG mixed with a 1.2-fold molar excess of mini-Gs393, on ice 4 h; Superdex-200 10/300; 10 mM HEPES pH 7.5, 100 mM NaCl, 1 mM MgCl2, 1 μM ascorbic acid, 1 μM isoprenaline, 0.002% LMNG; peak fractions analysed by SDS-PAGE
[3] = molecular target: minimally thermostabilised turkey β1AR construct β1AR-84 (turkey) (UniProt P07700)
[4] = molecular target: truncated form of turkey β1-adrenergic receptor, β1AR^∆NC (turkey) (UniProt P07700); remark: listed apart in the source
[5] = molecular target: non-lipidated Gβ1γ2 dimer (UniProt P62873); assay: SEC; purified mini-Gs399 mixed with non-lipidated Gβ1γ2 dimer in an equimolar ratio, on ice 4 h; Superdex-200 10/300; 10 mM HEPES pH 7.5, 100 mM NaCl, 1 mM MgCl2, 1 μM GDP, 0.1 mM TCEP

Row | Substance | Apparent Tm of β1AR^∆NC in DDM, measured by ^3H-NE binding (°C) [1] [°C] | stoichiometry N [2] | fold increase of the isoprenaline affinity of membrane-embedded β1AR-84 (competition with 3H-DHA, 25 μM binding partner, 20°C) [3] [fold] | fold shift of the isoprenaline affinity of membrane-embedded β1AR^∆NC (competition with 3H-DHA, 25 μM binding partner, 20°C) [4] [fold] | stoichiometry N [5]
1 | Mini-Gs393 (final mini-Gs construct) (domain or fragment) | 34.1 | 1 | – | – | –
2 | soluble heterotrimeric Gs in the presence of the nanobody Nb35 (from UniProt P63092 1-394; P62873 1-340; P59768 1-71) (complex) | 35.8 | – | 162 | 6 | –
3 | mini-Gs399 (domain or fragment) | – | – | – | – | 1
